Measurements taken from the supplement of paper PMC11502859.
Values joined by “and” are separate entries in the source; they are usually repeats but may differ in a detail not shown here. Identical values can stand only once.

System: HEK293T
Test: median enrichment of reporter reads in eGFP-reduced (low/intermediate) vs eGFP-high sorted cells (eGFP-extension fusion abundance) (ratio); higher = stronger loss of eGFP-fusion protein abundance (more destabilising extension)
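Also: lentiviral eGFP-IRES-mCherry reporter pool sorted by FACS 96 h post-transduction, gated on mCherry-high cells, Illumina read counts normalized per million, median across four biological replicates.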

Substance	median enrichment
CRVSLWPLSGIPGGRGGEGGTHIVNS [BDH1]	6.12
SGQGQPRD [SLC5A5]	0.35
WIEKI [GTF2A2]	1.64
SIILSPFGSCVERECEIYIISFWERLVLDAP [HSP90B1]	10.5
CGEPLAWPTNLGFTIQTADWMKLCTFLSLQLPYVESVIFICTFFAT [TAF7L]	10.8
WLYLRFEAGKPDR [UGT2B10]	6.76
SWRRPMCIFF [FRAS1]	9.68
LAAHPASSHVVWEQRDSHLRGGV [RASAL3]	2.07
NGPPLPPSPDAEMVMGSWRVGSEMKGTPQWAAGPIFPKPCHYLCEGGQVAEGSGCRLLYPLCLKHPPHRALVFTRFVLDSLNG [SLC13A5]	4.2
QRPLPGPSPAPRAPRPGPGARQTPACAPAERRLETGATASRVQQHSRHGSGRDSAWPRGTFPGQGPGGNWHGLVPLLCCILIP [ANKRD13B]	7.68
LKWAEPKFGVLHRAPFLHPWGGAQLGATLTMPRPHPVQHSQSSHLHPRTVGAGRHFPLEHVLRSITLGPTARLSLPPGSCMRS [SCARA5]	5.99
CCC [Cys03]	1.07
WDSSPSPSDQGPSSSKPEAELPAHPCRPPKPTPPHPV [ARL8A]	1.02
RGRTSALSDRTLRAMLPCHP [MRGPRX3]	6.81
LTLTV [ABCB1]	1.67
YGIRLSCFKNVRESHILLMANCYINGNT [CBWD1]	1.39
DDD [Asp03]	0.645
GRRWCFRTLSHSLPSSALCHSQPFQQPRQPLLRPFPQPDTHSH [AMOTL2]	12.3
LGRTSALSDRTLRAMLPCHP [MRGPRX3]	7.42
SQSG [PARD6A]	1.41
KHGGFGS [AKAIN1]	0.558
YSFTNQVP [SMAD2]	0.532
RQWLSCDDRQNGGEICLWEVEP [FBXO45]	6.14
QQQQ [Gln04]	0.501
SASAEVTEKPYDDVPDFSVGRSRPVA [TCF25]	0.734

Substance	median enrichment
LPF [SDHD]	0.443
KKKKKKKK [Lys08]	1.65
WGPDSELEGGEIFKEKRGKWEGCKRGE [SOX2]	29.7
AESLGSDLAAWGESLGSVLAAWGAGIAQSMNGPTPAKAESLGPVSPAAHGTGIAHGVRSVHLQGLRPWAQSALLLRVQALHMV [WNT9A]	7.26
GGRACTGATQPGLGAASPQPPRAKNLFIKECFGTL [LMNA]	17.9
SKTNTFYLWEAVPRFQPEL [ZBTB21]	11.3
KEHLWFT [NPAP1]	1.2
DDDDDD [Asp06]	0.38
WARVVARPCTTAIANQSPKAKFTCCSHPQ [MAGEB2]	8.12
SAGRGSAPRKCLLCPGAERRCLLGAGLPPCGSCAPWPGPCPAAPVSPSLSPVLVLACSSSQPRESFPTCPRLLSLPRPVVPSW [ARHGAP39]	4.7
SGLLLY [MRPL20]	1.83
YVLRWNSLGEHLMSQPIQLPHNPAEGRVRGE [WDR62]	7.76
GGLLALTLQPTLAVWPSPGSFPAPLPLFPVLLNSPSWRVQALGMGGTRPHSFHRALRPDTADQPHSAQEAASGVGAQRGTAAS [BAP1]	5.39
WMLSRSWRFKKKCRMAV [OR52D1]	23.1
WRQRGGKETWLSLIICIQITVL [ATXN1]	8.6
SRGSHAPPPPCHSLGPHLPLP [SDC1]	0.282
ACVARPDKHLQMAAAPTWDLPRRLEQKGLSLGWCFSSRVLGCMFCTASREGVSGGHHLWDTGSKGPVHSVISFLAPASPTSPR [TMEM141]	4.72
QNIYRVTKNKQSKKKTVY [LRRC4C]	31.9
SCLY [GLRX2]	1.01
MGNYILLCQGQQTPAVKGIPSARRLFGACMFIAPARPDRGLLHKPCLVHFFTCKGTECGLRFGTRGGFGNYGAQVIILRSFIQ [AHNAK]	9.08
SYFRLESKTS [PIK3CG]	1.99
MMMMMMMMM [Met09]	8.27
LTYFNYCIFISSFPNTNKIIL [DYNC2LI1]	8.97
PLAPALPTSSAWSEGAARAQQRRGGRLWPPTSRPVPAGTASPSAGRGSAPRKCLLCPGAERRCLLGAGLPPCGSCAPWPGPCP [ARHGAP39]	1.98
YMSF [PPP1CC]	1.47

Substance	median enrichment
QRLMQERCEGLRAGDCAILKPPLDLRTPRVGTSRVVGQPGSLYCGFSEA [MEIS3]	6.79
WGGPNLDSFPALGHRRPGSSARQAWARRAPGRALSAAGARPRTSAGTRESLLGRSVNKPFFLLFFKNCFSH [DUOXA2]	5.58
YVFLKIKLKKEIFFLIKL [GALNT3]	6.22
LGP [COLQ]	0.326
RMKSTASE [SERPINI2]	0.64
CPLNAANSASRTPNNSA [OR2AT4]	0.496
YFTIKVKQRKLYAGHICMRIQLFSGCSTTK [TMPRSS11A]	9.64
YFSPFFSPEMKTTSPLSLWKQSSVLHTTRC [ARL1]	11.4
WSLTRSLISRSTCVFIPPGN [FLT1]	4.28
KEENKQNQPPHHRVLQQDMHTIGA [CDCA7L]	11.9
LLCKEYGIAKISLVANISGKVHIFILNSHSFEL [MYNN]	4.26
RRRRR [Arg05]	0.5
DDDDDDD [Asp07]	0.338
QEWKSGSSRYSFMLCSCEQSTKFE [LMLN]	7.78
REKGNAQERNTVSPISDLDSTGYMEEI [OR8B8]	0.597
LVARALGVLLEAPRASRIASQLPGQPTLLQPLTRTPVIRTGAPVPWSPPWAHVLTQAQQ [OVOL1]	9.61
ESFHMIFCHIKHIVCLTVYRILKCSGCKTRDYLYAQNSYIFINEFNILFILVRAGQPFWVTQLIYQLIQIIEYIHNQADTS [PLS1]	11.2
LGKLPCRA [ZNF75D]	0.566
SSSSSSSS [Ser08]	0.512
KLICKIRNWTHIALFECEVR [RNF182]	12.7
SGTAVPACSPHLGRGSLAAFSLRSRST [AGAP1]	8.94
LAPRAEKMLGTHPAPPSTNTSGWGRGRTL [VPS26B]	1.3
YTPLFVVHYFD [KCNQ2]	7.27
SQAGMSPGSLARVGPQ [TXN2]	0.38
QRRQMQTKAT [TWSG1]	0.373

Substance	median enrichment
SEELPGRTQDAEPRSLPG [ACAN]	0.794
WSLVTPIEI [OR52A5]	7.53
YLLCVVGGGYYLYQPSVCHEPVGKSDIFII [IL1RAP]	6.77
YRDLQRPGQK [PEG10]	12
WARGHARAVQSWPGPPVGLLCSLPSLPPDAGPCCSLRTIRSSCSCHPHLETCLCAHLKMGSVPVLKCPVAAPVVEDQGLRFGT [FRMD8]	5.56
LNRKKSPK [MDN1]	0.34
LLRPHVKPPCPSTLPIALQRSSSWMTQI [RESP18]	7.12
SGIRLPGNSGTVALADHLQHPAS [SLC2A10]	0.633
QGLQKNWPWGTKAFFSGLLPRP [KANK4]	4.85
YSQTNTPYVSVNPCYLSRVCYFPSHRPNPWSPRGSHTTAITQCRGHA [HIP1]	2.78
RAGVCWHRQPPLWALGGPLKGSPTRGPDESFLSGVGSQRGSPPAAWGRAWPGRVIQRVCQPLTGSPSVAATRSTELLQPRGQL [FAM53B]	6.39
GACFAVGHPAKQANMETTCNLARLYLV [DDX3X]	17.6
WPGGGKHREREWPSGNPAGYPNPKGSYSQRHILVFVIILYQK [VPS26C]	16.9
SAPDSASALLTFYPVSLPSPLKAGAPRELPWSSLPGRV [PKMYT1]	8.2
STFKAFVK [GATA1]	0.381
RTQTPQSSRLALLRLRGPQKSPPK [TSGA13]	9.36
CPADTLPPPAPSTLSWAPPYLNL [NGF]	0.552
YYYYYYYY [Tyr08]	5.87
RVAVWEPLCLAPGYPGPGNLRAGERWGGRHAEVLLVTGLPSLTCTYLHPELSSSPSSCLLLPTCLPSAGAPRPTHSYCTVHFI [SLC36A1]	3.4
YTCGEGLSWTRPLPTASSLQVQLKPLSSGGRHVERAGRPTAAENRAGTGSSCSAFPSFGDAGSAAPKHLPAPHSTVSEDSSLL [CDC14B]	0.953
READTFFQQ [ADAM12]	0.392
TTTTTTTT [Thr08]	0.414
QICIIQAYLVKQTHIMGLGNIYLSKFAITDLGFFPFFEGKFNYIALLFFPLRDSLLGKCFLRTKI [CHMP5]	4.31
YMQKWIK [KCNMB2]	11.9
LLRDPAPPL [AHSP]	4.96

Substance	median enrichment
CAQKS [LCE6A]	0.549
QTGWPGPNP [EMILIN3]	0.352
YNPFALMSLPFVT [SIX2]	1.36
SGWLSTCSSWMASGPKLQSLNDQEQHEGLGTYPCKEFLDG [SQOR]	1.57
YQFCPTSLSPQPLQSSVTCCGLYSGSALATSPNISSSFSPSDLTVQ [JOSD1]	7.58
TTT [Thr03]	0.568
LIQHREVAACDLTHRFLCFLSHPGNLAFWFLPATLRLSSSAFQ [FHL2]	7.42
ETSSGQNRRVPNYVLKP [SLC10A2]	0.355
RQRPPAPALPQPSY [SART1]	0.558
YGVAQGAPGRGPGPRTL [TMEM38A]	0.588
AAAAAAAAAA [Ala10]	8.89
SKACILFEDIYKAI [KRT34]	2.29
LDAIWIWGLGVCVGGGIKWLWAGLSFPTAGCHIYTISLVRFLYKNLLLT [LSMEM2]	15.5
MMMMMMM [Met07]	6.53
ESPLFLPTLQGPHSPYPSVQCTREETLCL [IDH3B]	13.1
YPSLCHWVECAFRAS [ARHGEF6]	7.57
SERQEVEWRR [STAMBPL1]	0.37
YPSL [KCNK2]	0.357
QTA [FMR1]	0.337
HHHHHHHHH [His09]	0.435
CRFLLKLTLFHLSF [VHL]	24.3 and 30.2
YTPLCHFSGDPAFLIWK [CENPE]	5.97
WNR [ZC3HAV1]	0.487
LSDHPAFPN [TMBIM6]	0.54
